The record followed here is patent publication US20260285971 (published 2026).

For experiment [1], the target named is T1, human GPRC5D (human).
T1 chain: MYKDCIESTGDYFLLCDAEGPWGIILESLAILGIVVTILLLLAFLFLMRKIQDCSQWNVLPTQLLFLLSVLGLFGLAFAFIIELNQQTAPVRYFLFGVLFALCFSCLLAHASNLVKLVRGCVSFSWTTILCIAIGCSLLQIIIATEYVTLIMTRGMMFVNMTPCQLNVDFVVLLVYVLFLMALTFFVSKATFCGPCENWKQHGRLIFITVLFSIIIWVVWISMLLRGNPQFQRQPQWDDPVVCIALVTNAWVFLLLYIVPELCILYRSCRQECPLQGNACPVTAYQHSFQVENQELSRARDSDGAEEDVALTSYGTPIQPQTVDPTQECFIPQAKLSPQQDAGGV
The experiment in a line: ELISA.

The target in experiment [2] is T1, human GPRC5D. The experiment in a line: FACS molp-8.
Experiment [3] deals with T1, human GPRC5D. Kind of experiment: FACS NCI-H929.
For experiment [4], the target named is T1, human GPRC5D. The experiment in a line: FACS RPMI-8226.
Experiment [5] addresses T1, human GPRC5D. Kind of experiment: ELISA. On the technique in general: ELISA stands for enzyme-linked immunosorbent assay.
Experiment [6] deals with T1, human GPRC5D. Kind of experiment: FACS molp-8.
In experiment [7] the target is T1, human GPRC5D. The experiment in a line: FACS NCI-H929.
Experiment [8] deals with T1, human GPRC5D. Kind of experiment: FACS RPMI-8226.
Experiment [9] concerns the target T1, human GPRC5D. The experiment in a line: ELISA.
In experiment [10] the target is T1, human GPRC5D. Kind of experiment: FACS molp-8.
Experiment [11] deals with T1, human GPRC5D. Kind of experiment: FACS NCI-H929.
Experiment [12] concerns the target T1, human GPRC5D. The experiment in a line: FACS RPMI-8226.

B1: HAB04-H7 (antibody, V domains shown)
VH: EVQLVASGGGLVQPGGSLRLSCAASGFPYSTSRMGWFRQAPGKEREGVATIVPGTGYTYYVDSVKGRFTISQDNAKNSLYLQMNSLRAEDTAVYYCAAGDRRLLLNLLAPADYFYWGQGTMVTVSS
One may read the EC50 as the concentration that produces a half-maximal response. The low end stands for a more potent agent, the high end for a less potent agent. On to B1, for which the EC50 in experiment [1] turned out to be 0.0533 nM; in [2], 2.67 nM; in [3] it was 1.34 nM; in experiment [4], 2.42 nM.

B2: HAB04-H14 (antibody, V domains shown)
VH: EVQLVASGGGLVQPGGSLRLSCAASGFPYSTSRMGWFRQAPGKEREGVATIVPGTGYTYYADSVKGRFTISQDNAKNSLYLQMNSLRAEDTAVYYCAAGDRRLLLNLLAPADYFYWGQGTMVTVSS
In the case of B2, the EC50 was 0.0349 nM in [1], 1.35 nM in experiment [2], 0.711 nM in experiment [3] and 1.64 nM in [4].

B3: HAB04-H10 (antibody, V domains shown)
VH: EVQLVASGGGLVQPGGSLRLSCAASGFPYSTSRMGWFRQAPGKEREGVATIVPGTGYTYYVDSVKGRFTISQDSAKNSLYLQMNSLRAEDTAVYYCAAGDRRLLLNLLAPADYFYWGQGTMVTVSS
With B3, the EC50 in [1] came to 0.0481 nM; in [2], 4.3 nM; in experiment [3] it was 1.21 nM; in experiment [4], 3.05 nM.

B4: HAB04-H3 (antibody, V domains shown)
VH: EVQLVESGGGLVQPGGSLRLSCAASGFPYSTSRMGWFRQAPGKEREGVATIVPGTGYTYYVDSVKGRFTISQDNAKNSLYLQMNSLRAEDTAVYYCAAGDRRLLLNLLAPADYFYWGQGTMVTVSS
Take B4: the EC50 in [1] was 0.034 nM; in experiment [2] it was 3.04 nM; in experiment [3], 1.35 nM; in experiment [4], 2.81 nM.

B5: HAB04-H5 (antibody, V domains shown)
VH: EVQLVESGGGLVQPGGSLRLSCAASGFPYSTSRVGWFRQAPGKEREGVATIVPGTGYTYYVDSVKGRFTISQDNAKNSVYLQMNSLRAEDTAVYYCAAGDRRLLLNLLAPADYFYWGQGTMVTVSS
Consider B5, for which the EC50 in experiment [1] was 0.0333 nM; in experiment [2] it was 2.8 nM; in experiment [3] it was 1.02 nM; in experiment [4], 2.05 nM.

B6: HAB04-H8 (antibody, V domains shown)
VH: EVQLQESGGGLVQPGGSLRLSCVASGFPYSTSRMGWFRQAPGKEREGVATIVPGTGYTYYVDSVKGRFTISQDNAKNSLYLQMNSLRAEDTAVYYCAAGDRRLLLNLLAPADYFYWGQGTMVTVSS
For B6, the half-maximal effective concentration (EC50) was found to be 0.0311 nM in experiment [1], 1.74 nM in experiment [2], 1.28 nM in experiment [3] and 1.68 nM in experiment [4].

B7: HAB04-H4 (antibody, V domains shown)
VH: EVQLVESGGGLVQPGGSLRLSCAASGFPYSTSRMGWFRQAPGKEREGVATIVPGTGYTYYVDSVKGRFTISQDSAKNSLYLQMNSLRAEDTAVYYCAAGDRRLLLNLLAPADYFYWGQGTMVTVSS
With B7, the EC50 in experiment [1] came to 0.0382 nM; in experiment [2] it was 2.71 nM; in experiment [3], 1.41 nM; in [4], 2.29 nM.

B8: HAB03-H11 (antibody, V domains shown)
VH: DVQLVESGGGLVQPGGSLRLSCAASGDTANCIGWFRQAPGKGREGVAAIYTGLGNTYYANSAKGRFTISQDNAKNSVYLQMNSLRAEDTAVYYCAAGGILGRFCSRYFGQGTMVTVSS
Consider B8, for which the EC50 in experiment [5] was 0.0338 nM; in experiment [6] it was 0.812 nM; in [7], 1.12 nM; in experiment [8], 0.627 nM.

B9: HAB03-H12 (antibody, V domains shown)
VH: EVQLVASGGGLVQPGGSLRLSCAASGDTANCIGWFRQAPGKGREGVAAIYTGLGNTYYANSAKGRFTISQDNAKNSVYLQMNSLRAEDTAVYYCAAGGILGRFCSRYFGQGTMVTVSS
Turning to B9, the EC50 came to 0.0307 nM in experiment [5], 0.642 nM in experiment [6], 0.808 nM in [7] and 51.1 nM in [8].

B10: Lab04-huFc (antibody, V domains shown)
VH: EVQLQASGGGSVQAGGSLRLSCVASGFPYSTSRVGWFRQAPGKEREGVATIVPGTGYTYYADSVKGRFTISQDSAKNTVYLQMNSLKPEDTAVYYCAAGDRRLLLNLLAPADYFYWGQGTQVTVSS
On to B10, for which the EC50 in experiment [1] came to 0.0353 nM; in [2], 1.97 nM; in experiment [3], 0.915 nM; in experiment [4], 2.49 nM.

B11: Lab03-huFc (antibody, V domains shown)
VH: DVQLQASGGGSVQAGGSLRLSCAASGDTANCIGWFRQAPGKGREGVAAIYTGLGNTYYANSAKGRFTIAQDNAKNTVYLQMNSLKPEDSAMYYCAAGGILGRFCSRYFGQGTQVTVSS
With B11, the EC50 in experiment [5] was determined as 0.0319 nM; in [6], 0.599 nM; in experiment [7], 0.909 nM; in experiment [8], 0.603 nM.

B12: Lab02-huFc (antibody, V domains shown)
VH: DVQLQASGGGSVQAGESLRLSCAASGYLYMGWFRQAPGKEREGVAAIVTQSGLTGYADSVKGRFTISQDNAENRIYLQMNSLKPEDTAMYYCAAKSRLGWTLSPSAYNYWGRGTQVTVSS
As to B12, the EC50 in [9] was determined as 0.053 nM; in experiment [10], 0.875 nM; in experiment [11] it was 0.672 nM; in [12], 1.75 nM.

B13: HAB02-H2 (antibody, V domains shown)
VH: EVQLVESGGGVVQPGRSLRLSCAASGYLYMGWFRQAPGKEREGVAVIVTQSGLTYYADSVKGRFTISQDNSKNRLYLQMNSLRAEDTAVYYCAAKSRLGWTLSPSAYNYWGRGTLVTVSS
For B13, the EC50 worked out at 0.0381 nM in [9], 0.742 nM in [10], 0.299 nM in experiment [11] and 3.56 nM in experiment [12].

B14: HAB02-H8 (antibody, V domains shown)
VH: EVQLVESGGGVVQPGRSLRLSCAASGYLYMGWFRQAPGKEREGVAAIVTQSGLTGYADSVKGRFTISQDNSKNRIYLQMNSLRAEDTAVYYCAAKSRLGWTLSPSAYNYWGRGTLVTVSS
Take B14: the EC50 amounted to 0.0409 nM in [9], 1.06 nM in experiment [10], 0.401 nM in experiment [11] and 1.5 nM in experiment [12].

B15: HAB02-H3 (antibody, V domains shown)
VH: EVQLVESGGGVVQPGRSLRLSCAASGYLYMGWFRQAPGKEREGVAAIVTQSGLTYYADSVKGRFTISQDNSKNRLYLQMNSLRAEDTAVYYCAAKSRLGWTLSPSAYNYWGRGTLVTVSS
For the molecule B15, the EC50 in [9] was 0.042 nM; in experiment [10] it was 1.6 nM; in [11], 0.51 nM; in experiment [12], 1.88 nM.

B16: HAB02-H7 (antibody, V domains shown)
VH: EVQLQASGGGVVQPGRSLRLSCAASGYLYMGWFRQAPGKEREGVAAIVTQSGLTGYADSVKGRFTISQDNSKNRLYLQMNSLRAEDTAVYYCAAKSRLGWTLSPSAYNYWGRGTLVTVSS
Turning to B16, the EC50 came out at 0.0396 nM in experiment [9], 0.547 nM in experiment [10], 0.22 nM in experiment [11] and 0.257 nM in [12].

B17: HAB02-H6 (antibody, V domains shown)
VH: DVQLVESGGGVVQPGRSLRLSCAASGYLYMGWFRQAPGKEREGVAAIVTQSGLTGYADSVKGRFTISQDNSKNRLYLQMNSLRAEDTAVYYCAAKSRLGWTLSPSAYNYWGRGTLVTVSS
Consider B17, for which the EC50 in experiment [9] is 0.0362 nM; in experiment [10], 1.54 nM; in experiment [11] it was 0.317 nM; in experiment [12], 10.2 nM.

B18: HAB02-H5 (antibody, V domains shown)
VH: EVQLVESGGGVVQPGRSLRLSCAASGYLYMGWFRQAPGKEREGVAAIVTQSGLTGYADSVKGRFTISQDNAKNRLYLQMNSLRAEDTAVYYCAAKSRLGWTLSPSAYNYWGRGTLVTVSS
On to B18, for which the EC50 in [9] was 0.0406 nM; in [10] it was 1.06 nM; in experiment [11], 0.501 nM; in experiment [12], 1.76 nM.

B19: HAB02-H1 (antibody, V domains shown)
VH: EVQLVESGGGVVQPGRSLRLSCAASGYLYMGWFRQAPGKEREGVAVIVTQSGLTYYADSVKGRFTISRDNSKNRLYLQMNSLRAEDTAVYYCAAKSRLGWTLSPSAYNYWGRGTLVTVSS
With B19, the EC50 in [9] is 0.0405 nM; in experiment [10], 0.602 nM; in experiment [11] it was 0.312 nM; in experiment [12] it was 3.72 nM.

B20: HAB02-H4 (antibody, V domains shown)
VH: EVQLVESGGGVVQPGRSLRLSCAASGYLYMGWFRQAPGKEREGVAAIVTQSGLTGYADSVKGRFTISQDNSKNRLYLQMNSLRAEDTAVYYCAAKSRLGWTLSPSAYNYWGRGTLVTVSS
As to B20, the EC50 in [9] amounted to 0.0395 nM; in [10] it was 1.3 nM; in [11], 0.438 nM; in experiment [12], 47.9 nM.
